The experiment deals with full-length human LAG-3 expressed on cells (human) (UniProt P18627). As to the kind of experiment: cell-based or functional assay.
full-length human LAG-3 expressed on cells (human), sequence (P18627 23-525 limits assumed): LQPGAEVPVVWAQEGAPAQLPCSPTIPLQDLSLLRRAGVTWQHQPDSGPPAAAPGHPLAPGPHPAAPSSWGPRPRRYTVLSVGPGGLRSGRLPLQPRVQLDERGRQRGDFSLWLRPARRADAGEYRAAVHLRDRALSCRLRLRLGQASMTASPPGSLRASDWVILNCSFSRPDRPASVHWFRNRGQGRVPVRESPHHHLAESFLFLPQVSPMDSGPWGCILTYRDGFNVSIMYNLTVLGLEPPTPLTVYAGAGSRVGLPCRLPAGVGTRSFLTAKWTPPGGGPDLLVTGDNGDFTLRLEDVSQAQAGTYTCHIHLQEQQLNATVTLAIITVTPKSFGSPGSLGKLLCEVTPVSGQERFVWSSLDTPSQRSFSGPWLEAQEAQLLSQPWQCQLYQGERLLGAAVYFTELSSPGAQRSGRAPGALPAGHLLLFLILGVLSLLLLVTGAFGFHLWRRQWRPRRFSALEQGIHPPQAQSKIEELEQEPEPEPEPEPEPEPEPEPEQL

B1: BMK7 (antibody, from another filing, V domains shown)
VH: QVQLVESGGGVVQPGRSLRLSCVASGFTFSSYGMHWVRQAPGKGLEWVAIIWYDGSNKYYADSVKGRFTISRDNSKNTQYLQMNSLRAEDTAVYYCASVATSGDFDYYGMDVWGQGTTVTVSS
VL: EIVLTQSPATLSLSPGERTTLSCRASQRISTYLAWYQQKPGQAPRLLIYDASKRATGIPARFSGSGSGTGFTLTISSLEPEDFAVYYCQQRSNWPLTFGGGTKVEIK
Regarding B1, the EC50 (nM), IL-2 luciferase reporter gene assay is 2.65 nM.

The values are drawn from patent publication US20240067725A1.
